In article PMC12392098, “Predicting the DNA binding specificity of transcription factor mutants using family-level biophysically interpretable machine learning”:

Molecular target: ASCL2 DBD wild type (human, UniProt Q99929 50-102)
Experiment: EMSA; preferred over CACGTG probe; 32P EMSA: ~50 nM probe, 0.5/1/2 uM protein, 30 min, reagents as in Feng et al., gel at 4 C; fluorescent EMSA: 5x buffer (50 mM Tris pH 7.5, 250 mM NaCl, 5 mM MgCl2, 20% glycerol, 2.5 mM DTT, 2.5 mM EDTA, 250 ug/ml poly(dI-dC), 1 mg/ml BSA) used at 1x plus half volume protein dialysis buffer (20 mM HEPES pH 7.9, 200 mM NaCl, 10% glycerol, 2 mM MgCl2), gel 0.5x TBE at 4 C
Details: protein: recombinant; tags: N-terminal 6xHis; mScarlet fusion; chain copies: 2; label: 32P (SRI primer strand); blunt

ASCL2 DBD wild type, sequence (Q99929 50-102): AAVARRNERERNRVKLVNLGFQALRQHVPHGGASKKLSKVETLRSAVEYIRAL

B1: CAGCTG probe (dsDNA)
DNA 1: TAGCCAATAACTTCGTCCCTCAGCTGCATATAAGGAAGATCTAACCACCAATTTGG
DNA 2: CCAAATTGGTGGTTAGATCTTCCTTATATGCAGCTGAGGGACGAAGTTATTGGCTA
B1: binds.
